We go through one substance from US20170233470A1.

For the experiment, the target named is NTSR1. In words: cell-based or functional assay.

Take “Neurotensin (NTS) (from UniProt P30990 151-163) (peptide)”: the decrease in cell growth (proliferation) of CHO cells overexpressing NTSR1 came to 60%.
